According to US9783610B2:
Where “and” joins values, the source holds several entries; their conditions need not be identical. Identical values can stand only once. Like-named read-outs stand apart in the source and are kept apart here.

Columns and labels:
[1] = target: human TEM1 (endosialin, CD248) on cells (human) (UniProt Q9HCU0); test: live cell-based ELISA, binding to MS1-TEM1 minus binding to MS1 cells; positive control
[2] = target: T1, human TEM1 recombinant protein fused to GST (rhTEM1-GST) (human) (UniProt Q9HCU0); test: ELISA on plate-coated rhTEM1-GST, KD=2[Ab']t-[Ab]t
T1 sequence: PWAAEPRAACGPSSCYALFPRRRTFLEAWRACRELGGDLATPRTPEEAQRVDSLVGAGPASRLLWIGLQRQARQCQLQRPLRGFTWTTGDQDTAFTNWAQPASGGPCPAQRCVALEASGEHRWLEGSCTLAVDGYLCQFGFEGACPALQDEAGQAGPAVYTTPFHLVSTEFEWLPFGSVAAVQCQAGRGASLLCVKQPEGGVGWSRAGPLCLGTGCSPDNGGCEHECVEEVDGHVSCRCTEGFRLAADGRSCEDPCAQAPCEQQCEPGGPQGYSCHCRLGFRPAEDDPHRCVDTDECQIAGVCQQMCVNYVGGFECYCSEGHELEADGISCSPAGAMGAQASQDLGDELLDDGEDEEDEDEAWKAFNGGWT

[3] = target: T1, human TEM1 recombinant protein fused to GST (rhTEM1-GST) (human); test: ELISA on plate-coated rhTEM1-GST, KD=2[Ab']t-[Ab]t; remark: listed apart in the source
[4] = target: human TEM1 (endosialin, CD248) on cells (human) (UniProt Q9HCU0); test: live cell-based ELISA, binding to MS1-TEM1 minus binding to MS1 cells, HA-HRP detection
[5] = target: human TEM1 (endosialin, CD248) on cells (human) (UniProt Q9HCU0); test: live cell-based ELISA on MS1-TEM1 cells; reference scFv78

MORAB004 antibody (Morphotek, Inc) was tested, and the Kd [1] was 0.27 nM.

B1: scFv-78 (scFv)
scFv: VQPVLTQPPSLSASPGASASLTCTLRSDINVGSYRISWYQQKPGSPPQYLLSYISDSDKQKGSGVPSRFSGSKDASANAGILLISGLQSEDEADYYCMIWHNSAGVFGGGTKLTVLGGGSSRSSSSGGGGSGGGGQVQLQESGGTLVQPGGSLRLSCEASGFTFSNYAMGWVRQTPGKGLEWLSAIRKSGTTTYYADSVKGRFIISRDNSKNTLYLQMNRLRVGDTATYYCATHPIAGYWGQGTLVTVSSASTKGPS
With B1 the Kd [2] was 5.8 nM and 4.5 nM and 2.8 nM and the Kd [3] was 4.3 nM.

B2: scFv78 (expressed in 293F cells, purified on anti-HA beads) (scFv)
scFv: B1 scFv
In the case of B2, the Kd [4] is reported as 2.08 nM.

B3: Anti-TEM1 scFv78-minibody (scFv)
chain: VQPVLTQPPSLSASPGASASLTCTLRSDINVGSYRISWYQQKPGSPPQYLLSYISDSDKQKGSGVPSRFSGSKDASANAGILLISGLQSEDEADYYCMIWHNSAGVFGGGTKLTVLGGGSSRSSSSGGGGSGGGGQVQLQESGGTLVQPGGSLRLSCEASGFTFSNYAMGWVRQTPGKGLEWLSAIRKSGTTTYYADSVKGRFIISRDNSKNTLYLQMNRLRVGDTATYYCATHPIAGYWGQGTLVTVSSASTKGPSVGGGSLIKDKTHTCPPCPAPEL
B3 was tested, and the Kd [4] was 0.45 nM and the fold lower KD than scFv78 [5] was 5 fold.

B4: Anti-TEM1 scFv78-CH3 (protein)
chain: VQPVLTQPPSLSASPGASASLTCTLRSDINVGSYRISWYQQKPGSPPQYLLSYISDSDKQKGSGVPSRFSGSKDASANAGILLISGLQSEDEADYYCMIWHNSAGVFGGGTKLTVLGGGSSRSSSSGGGGSGGGGQVQLQESGGTLVQPGGSLRLSCEASGFTFSNYAMGWVRQTPGKGLEWLSAIRKSGTTTYYADSVKGRFIISRDNSKNTLYLQMNRLRVGDTATYYCATHPIAGYWGQGTLVTVSSASTKGPSVGGGSLIKDKTHTCPPCPSKAKGQPREPQVYTLPPSREEMTKNQVSLTCLVKGFYPSDIAVEWESNGQPENNYKTTPPVLDSDGSFFLYSKLTVDKSRWQQGNVFSCSVMHEALHNHYTQKSLSLSPGK
B4 gave a Kd [4] of 0.34 nM and a fold lower KD than scFv78 [5] of 5 fold.
